Test results from US10919943B2, “Mutant proteins enabling agrochemical control of plant gene expression” (The Regents of the University of California, priority 2016, dated 2021).
Numbering of substitutions follows the chain as printed. Names and notes keep the numbering of the source.

T1: PYR1 (Arabidopsis thaliana, UniProt O49686)
T1 construct: expressed in transfected cells; host or cells: S. cerevisiae strain Y190
T1 sequence (O49686 1-191): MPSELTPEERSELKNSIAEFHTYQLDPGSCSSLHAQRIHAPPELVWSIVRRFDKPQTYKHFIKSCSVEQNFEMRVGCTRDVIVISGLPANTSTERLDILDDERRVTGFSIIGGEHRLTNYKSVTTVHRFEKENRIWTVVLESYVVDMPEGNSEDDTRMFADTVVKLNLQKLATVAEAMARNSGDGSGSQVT

B1: V393Q: HAB1 mutant (protein, listed as Arabidopsis thaliana)
chain: MEEMTPAVAMTLSLAANTMCESSPVEITQLKNVTDAADLLSDSENQSFCNGGTECTMEDVSELEEVGEQDLLKTLSDTRSGSSNVFDEDDVLSVVEDNSAVISEGLLVVDAGSELSLSNTAMEIDNGRVLATAIIVGESSIEQVPTAEVLIAGVNQDTNTSEVVIRLPDENSNHLVKGRSVYELDCIPLWGTVSIQGNRSEMEDAFAVSPHFLKLPIKMLMGDHEGMSPSLTHLTGHFFGVYDGHGGHKVADYCRDRLHFALAEEIERIKDELCKRNTGEGRQVQWDKVFTSCFLTVDGEIEGKIGRAVVGSSDKVLEAVASETVGSTAVVALVCSSHIVVSNCGDSRAVLFRGKEAMPLSVDHKPDREDEYARIENAGGKVIQWQGARVFGQLAMSRSIGDRYLKPYVIPEPEVTFMPRSREDECLILASDGLWDVMNNQEVCEIARRRILMWHKKNGAPPLAERGKGIDPACQAAADYLSMLALQKGSKDNISIIVIDLKAQRKFKTRT
B2: V393K: HAB1 mutant (protein, listed as Arabidopsis thaliana)
chain: B1 chain with Q393K
B3: V393R: HAB1 mutant V393R, denoted HAB1^! (protein, listed as Arabidopsis thaliana)
chain: B1 chain with Q393R
B4: E203T: HAB1 mutant (protein, listed as Arabidopsis thaliana)
chain: B1 chain with E203T, Q393V
B5: E203D: HAB1 mutant (protein, listed as Arabidopsis thaliana)
chain: B1 chain with E203D, Q393V
B6: E203W: HAB1 mutant (protein, listed as Arabidopsis thaliana)
chain: B1 chain with E203W, Q393V
B7: G392D: HAB1 mutant (protein, UniProt Q9CAJ0 23-511, looked up, variant G392D)
Protein phosphatase 2C 16: SPVEITQLKNVTDAADLLSDSENQSFCNGGTECTMEDVSELEEVGEQDLLKTLSDTRSGSSNVFDEDDVLSVVEDNSAVISEGLLVVDAGSELSLSNTAMEIDNGRVLATAIIVGESSIEQVPTAEVLIAGVNQDTNTSEVVIRLPDENSNHLVKGRSVYELDCIPLWGTVSIQGNRSEMEDAFAVSPHFLKLPIKMLMGDHEGMSPSLTHLTGHFFGVYDGHGGHKVADYCRDRLHFALAEEIERIKDELCKRNTGEGRQVQWDKVFTSCFLTVDGEIEGKIGRAVVGSSDKVLEAVASETVGSTAVVALVCSSHIVVSNCGDSRAVLFRGKEAMPLSVDHKPDREDEYARIENAGGKVIQWQGARVFDVLAMSRSIGDRYLKPYVIPEPEVTFMPRSREDECLILASDGLWDVMNNQEVCEIARRRILMWHKKNGAPPLAERGKGIDPACQAAADYLSMLALQKGSKDNISIIVIDLKAQRKFKTRT
B8: Y404E: HAB1 mutant (protein, UniProt Q9CAJ0 23-511, looked up, variant Y404E)
Protein phosphatase 2C 16: B7 Protein phosphatase 2C 16 with D370G, Y382E
B9: Y404Q: HAB1 mutant (protein, UniProt Q9CAJ0 23-511, looked up, variant Y404Q)
Protein phosphatase 2C 16: B7 Protein phosphatase 2C 16 with D370G, Y382Q
B10: G392K: HAB1 mutant (protein, UniProt Q9CAJ0 23-511, looked up, variant G392K)
Protein phosphatase 2C 16: B7 Protein phosphatase 2C 16 with D370K
B11: Y404G: HAB1 mutant (protein, UniProt Q9CAJ0 23-511, looked up, variant Y404G)
Protein phosphatase 2C 16: B7 Protein phosphatase 2C 16 with D370G, Y382G
B12: E201H: HAB1 mutant (protein, UniProt Q9CAJ0 23-511, looked up, variant E201H)
Protein phosphatase 2C 16: B7 Protein phosphatase 2C 16 with E179H, D370G
B13: Y404R: HAB1 mutant (protein, UniProt Q9CAJ0 23-511, looked up, variant Y404R)
Protein phosphatase 2C 16: B7 Protein phosphatase 2C 16 with D370G, Y382R
B14: Y404P: HAB1 mutant (protein, UniProt Q9CAJ0 23-511, looked up, variant Y404P)
Protein phosphatase 2C 16: B7 Protein phosphatase 2C 16 with D370G, Y382P
B15: G392H: HAB1 mutant (protein, UniProt Q9CAJ0 23-511, looked up, variant G392H)
Protein phosphatase 2C 16: B7 Protein phosphatase 2C 16 with D370H
B16: E201K: HAB1 mutant (protein, UniProt Q9CAJ0 23-511, looked up, variant E201K)
Protein phosphatase 2C 16: B7 Protein phosphatase 2C 16 with E179K, D370G
B17: Y404T: HAB1 mutant (protein, UniProt Q9CAJ0 23-511, looked up, variant Y404T)
Protein phosphatase 2C 16: B7 Protein phosphatase 2C 16 with D370G, Y382T
B18: Y404K: HAB1 mutant (protein, UniProt Q9CAJ0 23-511, looked up, variant Y404K)
Protein phosphatase 2C 16: B7 Protein phosphatase 2C 16 with D370G, Y382K
B19: G392I: HAB1 mutant (protein, UniProt Q9CAJ0 23-511, looked up, variant G392I)
Protein phosphatase 2C 16: B7 Protein phosphatase 2C 16 with D370I
B20: H245A: HAB1 mutant (protein, UniProt Q9CAJ0 23-511, looked up, variant H245A)
Protein phosphatase 2C 16: B7 Protein phosphatase 2C 16 with H223A, D370G
B21: Y404D: HAB1 mutant (protein, UniProt Q9CAJ0 23-511, looked up, variant Y404D)
Protein phosphatase 2C 16: B7 Protein phosphatase 2C 16 with D370G, Y382D
B22: Y404N: HAB1 mutant (protein, UniProt Q9CAJ0 23-511, looked up, variant Y404N)
Protein phosphatase 2C 16: B7 Protein phosphatase 2C 16 with D370G, Y382N
B23: H245L: HAB1 mutant (protein, UniProt Q9CAJ0 23-511, looked up, variant H245L)
Protein phosphatase 2C 16: B7 Protein phosphatase 2C 16 with H223L, D370G
B24: H245M: HAB1 mutant (protein, UniProt Q9CAJ0 23-511, looked up, variant H245M)
Protein phosphatase 2C 16: B7 Protein phosphatase 2C 16 with H223M, D370G
B25: G392F: HAB1 mutant (protein, UniProt Q9CAJ0 23-511, looked up, variant G392F)
Protein phosphatase 2C 16: B7 Protein phosphatase 2C 16 with D370F
B26: G392E: HAB1 mutant (protein, UniProt Q9CAJ0 23-511, looked up, variant G392E)
Protein phosphatase 2C 16: B7 Protein phosphatase 2C 16 with D370E
B27: Y404S: HAB1 mutant (protein, UniProt Q9CAJ0 23-511, looked up, variant Y404S)
Protein phosphatase 2C 16: B7 Protein phosphatase 2C 16 with D370G, Y382S

Target: T1, PYR1
Assay: Yeast two hybrid of pACT-HAB1 site saturation mutants with pBD-PYR1 on 10 μM ABA, β-galactosidase staining
Assay type: cell-based
Set-up: key: x: Mutations in HAB1 that disrupt HAB1 interaction with PYR1
Conditions: S. cerevisiae Y190, 10 μM ABA; dead = lack of detectable staining in comparison to wild type control
Method in brief: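 HAB1 (lacking three N-terminal residues) site-saturation mutants in pACT were co-transformed with pBD-PYR1 into S. cerevisiae Y190 and spotted on SD (-Leu,-Trp) with 10 μM ABA. After 2 days at 30 °C, chloroform-lysed colonies were stained for β-galactosidase; "dead" means no detectable staining versus wild-type pair.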

Molecule | Mutations in HAB1 that disrupt HAB1 interaction with PYR1
B1 | x
B2 | x
B3 | x
B4 | x
B5 | x
B6 | x
B7 | x
B8 | x
B9 | x
B10 | x
B11 | x
B12 | x
B13 | x
B14 | x
B15 | x
B16 | x
B17 | x
B18 | x
B19 | x
B20 | x
B21 | x
B22 | x
B23 | x
B24 | x
B25 | x
B26 | x
B27 | x
